Results from paper PMC12259851, “Rapid detection and capture of clinical Escherichia coli strains mediated by OmpA-targeting nanobodies” (Communications Biology, 2025).

How the values were obtained:
[1] = target: T1, OmpF on E. coli K-12 MC1061 cells (Escherichia coli K-12 MC1061, UniProt P02931); experiment: flow cytometry on cells; Nb18 on the E. coli K12 strain (Supplementary Fig. 11c); conditions not told for this experiment; details: one partner purified
T1 construct: outer membrane protein OmpF, E. coli K-12 MC1061; The homotrimeric state is cited from other work; also called E. coli K12 strain; source: endogenous, on E. coli MC1061 cells

[2] = target: T2, OmpA-short on clinical E. coli strain CS#2 (Escherichia coli clinical isolate CS#2 …, UniProt P0A910, strain); experiment: flow cytometry on cells; as a8, CS#2, with EDTA during staining; details: one partner purified
T2 construct: OmpA, short isoform, of clinical isolate CS#2; Dense O-antigen layer; source: endogenous, on cells of clinical E. coli isolate CS#2

[3] = target: T2, OmpA-short on clinical E. coli strain …; experiment: flow cytometry on cells; as a8, CS#2, with the anticoagulant heparin; details: one partner purified
[4] = target: T2, OmpA-short on clinical E. coli strain …; experiment: flow cytometry on cells; as a8, CS#2, with the anticoagulant citrate phosphate dextrose (CPD); details: one partner purified
[5] = target: T3, OmpA-short on E. coli K-12 MC1061 cells (Escherichia coli K-12 MC1061, UniProt P0A910); experiment: flow cytometry on cells; concentration series of Nb01-AF647; cells fixed after staining (2% PFA), CytoFlex S, triplicates; Hill equation; apparent affinity (EC50); cells grown in LB; details: one partner purified
T3 construct: Strain devoid of O-antigen; source: endogenous, on E. coli MC1061 cells

[6] = target: T4, OmpA-short on clinical E. coli strain CS#1 (Escherichia coli clinical isolate CS#1 …, UniProt P0A910, strain); experiment: as above; details: one partner purified
T4 construct: OmpA, short isoform, of clinical isolate CS#1; Loose, partially permeable O-antigen layer; also called clinical strain #1; source: endogenous, on cells of clinical E. coli isolate CS#1

[7] = target: T2, OmpA-short on clinical E. coli strain …; experiment: as above; details: one partner purified
[8] = target: T5, OmpA-short on E. coli K1 strain ATCC 11775 (Escherichia coli K1 ATCC 11775, strain); experiment: as above; details: one partner purified
T5 construct: OmpA, short isoform, of E. coli K1 ATCC 11775; loop regions identical to those of MC1061 OmpA-short; Strain with a K1 polysaccharide capsule; also called E. coli K1 OmpA-short; source: endogenous, on cells of E. coli K1 ATCC 11775
T5 chain: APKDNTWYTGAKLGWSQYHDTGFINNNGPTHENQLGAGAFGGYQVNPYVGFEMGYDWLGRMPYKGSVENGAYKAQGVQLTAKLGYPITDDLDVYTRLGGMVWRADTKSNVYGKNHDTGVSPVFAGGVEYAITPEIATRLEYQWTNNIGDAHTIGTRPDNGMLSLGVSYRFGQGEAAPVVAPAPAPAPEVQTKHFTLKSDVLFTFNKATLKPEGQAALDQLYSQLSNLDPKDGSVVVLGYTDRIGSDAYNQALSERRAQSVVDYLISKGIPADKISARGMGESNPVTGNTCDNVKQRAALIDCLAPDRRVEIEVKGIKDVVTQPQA

[9] = target: T6, Transmembrane domain of OmpA-short (Escherichia coli K-12 MC1061, UniProt P0A910); experiment: crystal structure; β-barrel domain of OmpA mixed 1:1.1 with the nanobody, sitting drop vapor diffusion at 20 °C; interface analysed with PDBePISA; details: both partners purified
T6 construct: OmpA, short isoform, E. coli K-12 MC1061, transmembrane (β-barrel) domain; also called β-barrel domain of OmpA-short

T1 sequence (P02931 23-362): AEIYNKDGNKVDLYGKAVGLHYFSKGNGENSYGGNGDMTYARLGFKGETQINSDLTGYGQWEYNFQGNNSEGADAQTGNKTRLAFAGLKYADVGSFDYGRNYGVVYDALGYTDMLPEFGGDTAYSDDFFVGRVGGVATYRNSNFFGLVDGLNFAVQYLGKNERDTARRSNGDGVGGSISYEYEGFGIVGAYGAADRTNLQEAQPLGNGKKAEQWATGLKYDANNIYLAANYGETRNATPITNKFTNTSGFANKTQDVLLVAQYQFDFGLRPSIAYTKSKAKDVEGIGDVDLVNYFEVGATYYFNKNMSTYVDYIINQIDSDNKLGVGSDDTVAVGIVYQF

B1: Nb18 (for flow cytometry) (VHH)
VHH: QRQLVESGGGLVQAGGSLTLSCSATGTVPRIDAMGWYRRSTGKKREQVASVGRGGRTNYSDSAKGRFTISRNGNTVTLQMTSLKPEDTDVYFCNALKYGRNADYDDYWGRGTRVTVSA
notes: nanobody Nb18 (alpaca VHH against OmpF); the flow cytometry methods speak of Alexa Fluor 647-labeled nanobodies (cysteine at the C-terminus, pSBinit with myc- and His-tag); also called OmpF nanobody
EC50 [1]: 3 nM

B2: Nb01-AF647 (VHH)
VHH: QVQLVESGGGLVQPGGSLRLSCVVSGTGFTFSKSPMSWARQAPGKEREWVSAIFADSSTYYSDSVRGRFTISRDNAKNTVYLQMNNVKPEDTAVYYCGHRRLGKTTYDYRGKGTRVTVSA
notes: nanobody Nb01 (alpaca VHH against OmpA-short); also called AlexaFluor647-labeled Nb01; source: E. coli MC1061 ΔompA (pSBinit), periplasmic extraction, purified (Ni-NTA, SEC), labelled with maleimide-AF647
EC50 [2]: 4.98 nM
EC50 [3]: 4.7 nM
EC50 [4]: 7.4 nM
EC50 [5]: 12.9 nM
EC50 [6]: 25.9 nM
EC50 [7]: 61.1 nM
EC50 [8]: 84.9 nM

B3: Nb01 (for X-ray crystallography) (VHH)
VHH: QVQLVESGGGLVQPGGSLRLSCVVSGTGFTFSKSPMSWARQAPGKEREWVSAIFADSSTYYSDSVRGRFTISRDNAKNTVYLQMNNVKPEDTAVYYCGHRRLGKTTYDYRGKGTRVTVSA
notes: nanobody Nb01 (alpaca VHH against OmpA-short); source: E. coli MC1061 ΔompA (pBXNPHM3), purified (Ni-NTA, 3C cleavage, reverse Ni-NTA, SEC)
binding result [9]: binds
